Tested on: T1, Cc1cc(=O)oc2cc(NC(=O)[C@H](CCCNC(=N)N)NC(=O)[C@H](C)NC(=O)[C@H](CCC(N)=O)NC(=O)OC(C)(C)C)ccc12
T1 construct: purchased R&D Systems 4776-SE-010
Assay: Km determination of fluorogenic substrate with hepsin
Type: biochemical, human
Description: In black 384 well plates (Corning #3575), 12.5 nM HGFA was mixed with various amounts of Boc-QLR-AMC and 1 nM matriptase and 0.3 nM hepsin were mixed with various amounts of Boc-QAR-AMC. Changes in fluorescence (excitation at 380 nm and emission at 460 nn) were measured at room temperature over time in a Biotek Synergy 2 plate reader (Winnoski, Vt.). Using plots of the mean reaction velocity versus substrate concentration and the Michaelis-Menten enzyme kinetics equation within GraphPad Prism version 6.04 for Windows (GraphPad Software, San Diego, Calif., www.graphpad.com), the reaction Vmax and subsequent Km for each of the substrates were determined.

Chain of hepsin (Homo sapiens) (chain, as listed by the source): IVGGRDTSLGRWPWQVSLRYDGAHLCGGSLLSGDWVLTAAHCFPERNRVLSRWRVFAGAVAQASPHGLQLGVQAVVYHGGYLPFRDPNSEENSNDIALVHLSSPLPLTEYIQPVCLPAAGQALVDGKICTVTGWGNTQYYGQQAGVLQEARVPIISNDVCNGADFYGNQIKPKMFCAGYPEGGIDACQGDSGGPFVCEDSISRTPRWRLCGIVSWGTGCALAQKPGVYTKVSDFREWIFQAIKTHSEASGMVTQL

## hepsin (Homo sapiens)
  Km: 156 µM
